Measurements published in patent publication US8795990B2, “Recombinant enzyme with altered feedback sensitivity” (Metabolic Explorer, priority 2004, dated 2014).

System: S-adenosylmethionine synthetase
Test: S-adenosylmethionine synthetase (MAT) activity in vitro in crude extracts, FIA-MS/MS
Format: biochemical, E. coli
Conditions: 10 mM methionine, 10 mM ATP, 37° C., 30 minutes

B1: MetK* S273F (protein, UniProt P0A817 2-384, looked up, variant S273F)
S-adenosylmethionine synthase: AKHLFTSESVSEGHPDKIADQISDAVLDAILEQDPKARVACETYVKTGMVLVGGEITTSAWVDIEEITRNTVREIGYVHSDMGFDANSCAVLSAIGKQSPDINQGVDRADPLEQGAGDQGLMFGYATNETDVLMPAPITYAHRLVQRQAEVRKNGTLPWLRPDAKSQVTFQYDDGKIVGIDAVVLSTQHSEEIDQKSLQEAVMEEIIKPILPAEWLTSATKFFINPTGRFVIGGPMGDCGLTGRKIIVDTYGGMARHGGGAFSGKDPSKVDRFAAYAARYVAKNIVAAGLADRCEIQVSYAIGVAEPTSIMVETFGTEKVPSEQLTLLVREFFDLRPYGLIQMLDLLHPIYKETAAYGHFGREHFPWEKTDKAQLLRDAAGLK
For B1, the “MAT (S-adenosylmethionine synthetase activity)” value was 2.2 mUI/mg prot.
